Results on one molecule are retold here after US20160194407A1 (AstraZeneca / MedImmune, published 2016).

Experiment [1] concerns the target T1, CD73 construct with chicken N- and C-terminal domain sequence and knocked-in human V144 and N185.
T1 construct: K180 is conserved between chicken and human; also called chicken CD73 replaced with V144 and N185; knock-in
T1 chain: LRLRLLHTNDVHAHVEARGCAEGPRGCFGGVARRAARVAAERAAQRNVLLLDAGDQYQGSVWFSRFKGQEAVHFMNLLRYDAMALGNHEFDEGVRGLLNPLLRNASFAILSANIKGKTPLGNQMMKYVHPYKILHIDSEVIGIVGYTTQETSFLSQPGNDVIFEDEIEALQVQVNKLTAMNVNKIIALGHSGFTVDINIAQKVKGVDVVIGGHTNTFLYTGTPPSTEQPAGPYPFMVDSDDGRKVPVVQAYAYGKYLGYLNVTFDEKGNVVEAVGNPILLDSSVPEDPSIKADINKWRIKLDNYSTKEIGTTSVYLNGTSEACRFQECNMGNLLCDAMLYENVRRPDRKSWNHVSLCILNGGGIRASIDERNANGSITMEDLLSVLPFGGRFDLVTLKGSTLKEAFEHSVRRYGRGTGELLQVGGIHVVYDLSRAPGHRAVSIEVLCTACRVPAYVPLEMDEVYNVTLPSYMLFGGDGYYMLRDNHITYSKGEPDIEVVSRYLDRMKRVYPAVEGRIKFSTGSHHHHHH
The experiment can be described thus: SPR ProteOn, His-tagged CD73 variant on HTG chip.

The target in a further experiment is T2, cynomolgus CD73 on cells (cynomolgus).
T2 construct: whole, on cells; also called native CD73 on MK-1 cells (cynomolgus)
The experiment can be described thus: flow cytometry on MK-1 cells, IgG1-TM.

The next experiment concerns the target T3, murine CD73 on cells (murine, UniProt Q61503 29-551).
T3 sequence (looked up): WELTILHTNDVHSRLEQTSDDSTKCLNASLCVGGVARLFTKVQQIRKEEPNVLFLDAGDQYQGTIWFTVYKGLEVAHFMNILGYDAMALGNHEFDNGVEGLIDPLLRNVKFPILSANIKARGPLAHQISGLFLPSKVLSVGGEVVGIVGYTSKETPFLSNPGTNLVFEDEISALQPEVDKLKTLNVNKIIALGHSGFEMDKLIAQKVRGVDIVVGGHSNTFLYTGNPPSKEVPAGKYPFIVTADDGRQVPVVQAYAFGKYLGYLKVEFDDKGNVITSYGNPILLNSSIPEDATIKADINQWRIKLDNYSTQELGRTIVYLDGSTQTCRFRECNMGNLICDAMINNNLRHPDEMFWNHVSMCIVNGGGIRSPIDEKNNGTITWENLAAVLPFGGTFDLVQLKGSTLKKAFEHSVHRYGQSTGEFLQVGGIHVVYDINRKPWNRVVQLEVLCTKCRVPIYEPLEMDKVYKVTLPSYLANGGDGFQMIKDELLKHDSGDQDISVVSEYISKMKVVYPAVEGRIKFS
Put plainly: cell-based or functional assay.

Experiment [2] has as its target T4, cynomolgus CD73 extracellular domain (ECD) (cynomolgus).
T4 construct: extracellular domain; also called Cynomolgus CD73 ECD; cyno CD73 (SPR Proteon)
The experiment can be described thus: SPR ProteOn, antibody captured by anti-human Fc, CD73 ECD in mobile phase, 1:1 model.

Experiment [3] has as its target T5, recombinant mature human CD73 (amino acid positions 1-526) with C-terminal 6x-histidine tag (human, UniProt P21589 27-553).
T5 sequence: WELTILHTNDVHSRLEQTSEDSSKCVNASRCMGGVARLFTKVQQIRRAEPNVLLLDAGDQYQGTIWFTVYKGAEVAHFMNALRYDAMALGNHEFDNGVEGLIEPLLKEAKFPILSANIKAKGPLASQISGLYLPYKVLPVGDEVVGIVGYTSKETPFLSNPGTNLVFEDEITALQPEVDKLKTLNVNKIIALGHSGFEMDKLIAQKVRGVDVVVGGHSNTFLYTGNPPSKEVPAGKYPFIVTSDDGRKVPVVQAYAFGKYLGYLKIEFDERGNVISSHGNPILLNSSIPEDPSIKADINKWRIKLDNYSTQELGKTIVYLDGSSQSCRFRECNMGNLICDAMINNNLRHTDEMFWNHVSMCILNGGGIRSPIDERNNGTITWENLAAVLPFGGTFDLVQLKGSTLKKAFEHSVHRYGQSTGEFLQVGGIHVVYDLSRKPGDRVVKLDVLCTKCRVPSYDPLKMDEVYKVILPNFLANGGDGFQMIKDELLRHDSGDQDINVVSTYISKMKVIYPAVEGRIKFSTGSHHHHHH
The experiment can be described thus: cell-based or functional assay.

A further experiment deals with T6, human CD73 N185G (human, UniProt P21589 27-553, N185G).
T6 sequence: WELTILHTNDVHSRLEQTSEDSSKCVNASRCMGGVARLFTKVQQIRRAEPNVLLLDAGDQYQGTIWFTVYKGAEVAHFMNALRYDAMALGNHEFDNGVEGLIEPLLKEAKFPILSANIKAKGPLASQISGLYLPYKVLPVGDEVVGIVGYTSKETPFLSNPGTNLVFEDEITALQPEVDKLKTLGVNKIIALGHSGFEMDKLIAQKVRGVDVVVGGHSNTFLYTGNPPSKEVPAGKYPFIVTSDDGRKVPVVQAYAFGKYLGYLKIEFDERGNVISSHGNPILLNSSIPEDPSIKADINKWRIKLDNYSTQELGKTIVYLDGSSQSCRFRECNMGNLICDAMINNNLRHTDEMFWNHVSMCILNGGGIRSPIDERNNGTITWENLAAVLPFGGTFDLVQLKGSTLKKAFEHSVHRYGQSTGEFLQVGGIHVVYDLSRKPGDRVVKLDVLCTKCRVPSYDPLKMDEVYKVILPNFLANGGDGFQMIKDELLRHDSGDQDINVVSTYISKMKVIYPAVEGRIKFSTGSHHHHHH
The experiment can be described thus: SPR ProteOn, His-tagged CD73 variant on HTG chip, 2:1 fit.

B1: MEDI9447 (antibody, V domains shown)
VH: EVQLLESGGGLVQPGGSLRLSCAASGFTFSSYAYSWVRQAPGKGLEWVSAISGSGGRTYYADSVKGRFTISRDNSKNTLYLQMNSLRAEDTAVYYCARLGYGRVDEWGRGTLVTVSS
VL: QSVLTQPPSASGTPGQRVTISCSGSLSNIGRNPVNWYQQLPGTAPKLLIYLDNLRLSGVPDRFSGSKSGTSASLAISGLQSEDEADYYCATWDDSHPGWTFGGGTKLTVL
notes: also called clone 10.3 antibody; 73combo3
Take B1: the Kd in experiment [1] amounted to 0.079 nM; in the experiment with cynomolgus CD73 on cells, 0.084 nM; in experiment [2], 0.0065 nM. Further, the “FabZAP internalization, max toxicity, 4T1” value with murine CD73 on cells was determined as 97%. Also, the koff in experiment [2] came to 1.76e-05 s⁻¹; in the experiment with human CD73 N185G, 0.000245 s⁻¹. Also, the kon in experiment [2] amounted to 2.71e+06 M⁻¹ s⁻¹; with human CD73 N185G, 9.11e+06 M⁻¹ s⁻¹. Further, the “inhibition of sCD73 hydrolysis of AMP (CellTiterGlo), dose response” value in experiment [3] was ~1 IgG per sCD73 dimer (molar ratio).
